How the values were obtained:
Assay in all cases: holdup assay
Design in all cases: key: below the threshold = too weak to quantify, mostly under pKd 3.1 to 4
Settings in all cases: plain residues with an end cap or a label only (N-terminal biotin on a linker: ado-ado)
NHERF3_4, Q5T2W1 = target: T1, NHERF3_4, Q5T2W1
T1 sequence (Q5T2W1 373-468, limits assumed, looked up): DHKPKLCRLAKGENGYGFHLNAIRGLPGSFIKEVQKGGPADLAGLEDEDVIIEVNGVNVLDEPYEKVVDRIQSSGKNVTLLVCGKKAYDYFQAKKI

HTRA2, O43464 = target: HTRA2, O43464
Sequence of HTRA2, O43464 (O43464 355-458): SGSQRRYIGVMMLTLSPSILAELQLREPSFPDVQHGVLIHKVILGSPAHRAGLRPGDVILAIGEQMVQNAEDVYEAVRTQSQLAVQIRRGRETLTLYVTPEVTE

PDZRN3_1, Q9UPQ7 = target: T2, PDZRN3_1, Q9UPQ7
T2 sequence (Q9UPQ7 244-349, limits assumed, looked up): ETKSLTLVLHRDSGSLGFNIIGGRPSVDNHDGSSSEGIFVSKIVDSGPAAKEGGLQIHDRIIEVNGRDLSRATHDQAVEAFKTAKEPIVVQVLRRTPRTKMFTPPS

TIAM2, Q8IVF5 = target: T3, TIAM2, Q8IVF5
T3 sequence (Q8IVF5 885-986, limits assumed, looked up): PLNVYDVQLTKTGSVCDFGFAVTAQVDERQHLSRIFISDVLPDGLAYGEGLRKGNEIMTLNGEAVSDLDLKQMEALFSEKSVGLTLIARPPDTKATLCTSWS

APBA2_1, Q99767 = target: T4, APBA2_1, Q99767
T4 sequence (Q99767 563-664, limits assumed, looked up): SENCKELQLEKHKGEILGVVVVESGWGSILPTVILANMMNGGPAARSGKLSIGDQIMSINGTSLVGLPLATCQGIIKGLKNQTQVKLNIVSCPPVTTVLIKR

MAST2, Q6P0Q8 = target: MAST2, Q6P0Q8
Sequence of MAST2, Q6P0Q8 (Q6P0Q8 1099-1202): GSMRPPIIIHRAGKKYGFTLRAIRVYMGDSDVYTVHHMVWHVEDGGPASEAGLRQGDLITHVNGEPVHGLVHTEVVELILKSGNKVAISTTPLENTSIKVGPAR

DFNB31_3, Q9P202 = target: T5, DFNB31_3, Q9P202
T5 sequence (Q9P202 811-907, limits assumed, looked up): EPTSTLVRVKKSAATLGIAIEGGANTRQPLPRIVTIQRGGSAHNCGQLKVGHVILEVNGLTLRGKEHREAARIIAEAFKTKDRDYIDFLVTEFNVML

MAGI1_1, Q96QZ7 = target: MAGI1_1, Q96QZ7
Sequence of MAGI1_1, Q96QZ7 (Q96QZ7 1-106): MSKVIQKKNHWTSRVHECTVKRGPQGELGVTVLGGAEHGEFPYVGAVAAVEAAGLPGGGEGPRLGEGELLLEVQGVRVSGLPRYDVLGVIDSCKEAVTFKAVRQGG

DLG1_3, Q12959 = target: DLG1_3, Q12959
Sequence of DLG1_3, Q12959 (Q12959 457-571): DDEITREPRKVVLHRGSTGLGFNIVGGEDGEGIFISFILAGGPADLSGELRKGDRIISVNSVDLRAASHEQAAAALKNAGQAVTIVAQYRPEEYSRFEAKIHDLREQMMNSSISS

NHERF4_2, Q86UT5 = target: NHERF4_2, Q86UT5
Sequence of NHERF4_2, Q86UT5 (Q86UT5 220-308): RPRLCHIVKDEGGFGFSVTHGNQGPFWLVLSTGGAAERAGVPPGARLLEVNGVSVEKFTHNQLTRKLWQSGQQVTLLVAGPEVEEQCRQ

DLG1_2, Q12959 = target: DLG1_2, Q12959
Sequence of DLG1_2, Q12959 (Q12959 314-412): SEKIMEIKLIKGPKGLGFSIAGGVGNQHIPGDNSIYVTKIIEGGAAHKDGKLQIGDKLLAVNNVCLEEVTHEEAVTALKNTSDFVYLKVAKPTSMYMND

ARHGEF11, O15085 = target: T6, ARHGEF11, O15085
T6 sequence (O15085 42-136, limits assumed, looked up): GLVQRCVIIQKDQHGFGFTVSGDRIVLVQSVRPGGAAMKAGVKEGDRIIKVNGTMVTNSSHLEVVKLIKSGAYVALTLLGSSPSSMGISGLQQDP

PTPN13_1, Q12923 = target: T7, PTPN13_1, Q12923
T7 sequence (Q12923 1088-1188, limits assumed, looked up): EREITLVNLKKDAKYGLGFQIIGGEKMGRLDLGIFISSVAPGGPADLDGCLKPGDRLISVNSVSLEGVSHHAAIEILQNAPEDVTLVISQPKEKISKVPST

LIN7C, Q9NUP9 = target: T8, LIN7C, Q9NUP9
T8 sequence (Q9NUP9 88-185, limits assumed, looked up): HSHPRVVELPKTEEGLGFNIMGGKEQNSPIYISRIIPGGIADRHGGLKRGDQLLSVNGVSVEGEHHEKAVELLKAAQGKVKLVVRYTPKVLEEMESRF

AHNAK1, Q09666 = target: AHNAK1, Q09666
Sequence of AHNAK1, Q09666 (Q09666 4-100): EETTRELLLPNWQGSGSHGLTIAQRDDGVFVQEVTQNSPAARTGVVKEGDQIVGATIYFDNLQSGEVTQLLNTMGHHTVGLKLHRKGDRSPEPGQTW

MAGI2_6, Q86UL8 = target: MAGI2_6, Q86UL8
Sequence of MAGI2_6, Q86UL8 (Q86UL8 1141-1229): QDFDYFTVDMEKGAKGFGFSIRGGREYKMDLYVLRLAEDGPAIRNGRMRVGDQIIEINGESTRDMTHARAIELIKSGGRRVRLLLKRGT

TJP1_3, Q07157 = target: TJP1_3, Q07157
Sequence of TJP1_3, Q07157 (Q07157 416-512): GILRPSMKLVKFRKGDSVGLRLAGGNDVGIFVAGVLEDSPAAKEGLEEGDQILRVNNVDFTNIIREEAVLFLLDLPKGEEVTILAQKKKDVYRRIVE

Inadl_9, Q8NI35 = target: Inadl_9, Q8NI35
Sequence of Inadl_9, Q8NI35 (Q8NI35 1530-1615): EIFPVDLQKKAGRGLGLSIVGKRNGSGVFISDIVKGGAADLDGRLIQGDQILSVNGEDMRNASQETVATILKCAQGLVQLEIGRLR

LNX1_3, Q8TBB1 = target: LNX1_3, Q8TBB1
Sequence of LNX1_3, Q8TBB1 (Q8TBB1 500-596): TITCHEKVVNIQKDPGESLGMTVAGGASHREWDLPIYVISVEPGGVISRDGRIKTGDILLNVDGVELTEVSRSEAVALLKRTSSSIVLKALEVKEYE

DFNB31_1, Q9P202 = target: T9, DFNB31_1, Q9P202
T9 sequence (Q9P202 135-233, limits assumed, looked up): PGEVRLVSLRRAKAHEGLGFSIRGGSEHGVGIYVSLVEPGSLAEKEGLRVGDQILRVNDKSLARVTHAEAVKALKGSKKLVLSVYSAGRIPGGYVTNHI

LRRC7, Q96NW7 = target: T10, LRRC7, Q96NW7
T10 sequence (Q96NW7 1440-1537, limits assumed, looked up): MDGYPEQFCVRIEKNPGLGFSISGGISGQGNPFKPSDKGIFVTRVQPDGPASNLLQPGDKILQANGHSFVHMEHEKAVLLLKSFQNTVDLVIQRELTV

MPDZ_12, O75970 = target: T11, MPDZ_12, O75970
T11 sequence (O75970 1857-1958, limits assumed, looked up): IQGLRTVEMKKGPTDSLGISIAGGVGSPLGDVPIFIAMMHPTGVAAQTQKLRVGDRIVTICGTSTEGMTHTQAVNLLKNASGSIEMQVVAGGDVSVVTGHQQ

DLG3_1, Q92796 = target: T12, DLG3_1, Q92796
T12 sequence (Q92796 125-227, limits assumed, looked up): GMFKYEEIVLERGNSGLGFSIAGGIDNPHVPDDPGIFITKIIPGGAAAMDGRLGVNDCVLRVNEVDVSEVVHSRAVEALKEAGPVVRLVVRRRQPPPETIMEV

NHERF4_4, Q86UT5 = target: NHERF4_4, Q86UT5
Sequence of NHERF4_4, Q86UT5 (Q86UT5 464-550): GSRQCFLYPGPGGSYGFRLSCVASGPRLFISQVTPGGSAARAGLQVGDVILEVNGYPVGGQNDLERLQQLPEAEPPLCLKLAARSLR

Inadl_1, Q8NI35 = target: Inadl_1, Q8NI35
Sequence of Inadl_1, Q8NI35 (Q8NI35 113-229): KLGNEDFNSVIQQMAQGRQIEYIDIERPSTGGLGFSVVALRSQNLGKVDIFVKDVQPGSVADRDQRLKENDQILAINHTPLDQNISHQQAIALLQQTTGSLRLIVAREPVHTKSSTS

NHERF2_2, Q15599 = target: NHERF2_2, Q15599
Sequence of NHERF2_2, Q15599 (Q15599 142-238): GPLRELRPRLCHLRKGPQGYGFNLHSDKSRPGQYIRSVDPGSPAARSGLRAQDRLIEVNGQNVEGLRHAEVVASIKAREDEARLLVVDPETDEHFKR

QFTLRHWLKV [SLC6A3, Q01959]
pKd (NHERF3_4, Q5T2W1): 3.74
pKd (HTRA2, O43464): 4.06
pKd (PDZRN3_1, Q9UPQ7): below the threshold
pKd (TIAM2, Q8IVF5): 4.46
pKd (APBA2_1, Q99767): 3.48
pKd (MAST2, Q6P0Q8): 4.82
pKd (DFNB31_3, Q9P202): below the threshold
pKd (MAGI1_1, Q96QZ7): below the threshold
pKd (DLG1_3, Q12959): below the threshold
pKd (NHERF4_2, Q86UT5): below the threshold
pKd (DLG1_2, Q12959): below the threshold
pKd (ARHGEF11, O15085): below the threshold
pKd (PTPN13_1, Q12923): below the threshold
pKd (LIN7C, Q9NUP9): below the threshold
pKd (AHNAK1, Q09666): below the threshold
pKd (MAGI2_6, Q86UL8): below the threshold
pKd (TJP1_3, Q07157): below the threshold
pKd (Inadl_9, Q8NI35): below the threshold
pKd (LNX1_3, Q8TBB1): 3.83
pKd (DFNB31_1, Q9P202): 3.47
pKd (LRRC7, Q96NW7): below the threshold
pKd (MPDZ_12, O75970): below the threshold
pKd (DLG3_1, Q92796): below the threshold
pKd (NHERF4_4, Q86UT5): 3.65
pKd (Inadl_1, Q8NI35): below the threshold
pKd (NHERF2_2, Q15599): below the threshold

RELVMRVTTV [MARCHF4, Q9P2E8]
pKd (NHERF3_4, Q5T2W1): 3.58
pKd (HTRA2, O43464): 3.83
pKd (PDZRN3_1, Q9UPQ7): 3.77
pKd (TIAM2, Q8IVF5): 3.76
pKd (APBA2_1, Q99767): below the threshold
pKd (MAST2, Q6P0Q8): 5.29
pKd (DFNB31_3, Q9P202): 4.33
pKd (MAGI1_1, Q96QZ7): below the threshold
pKd (DLG1_3, Q12959): 5.12
pKd (NHERF4_2, Q86UT5): below the threshold
pKd (DLG1_2, Q12959): 5.41
pKd (ARHGEF11, O15085): 4.71
pKd (PTPN13_1, Q12923): below the threshold
pKd (LIN7C, Q9NUP9): 4.3
pKd (AHNAK1, Q09666): below the threshold
pKd (MAGI2_6, Q86UL8): 4.55
pKd (TJP1_3, Q07157): below the threshold
pKd (Inadl_9, Q8NI35): 3.82
pKd (LNX1_3, Q8TBB1): below the threshold
pKd (DFNB31_1, Q9P202): 3.97
pKd (LRRC7, Q96NW7): 3.6
pKd (MPDZ_12, O75970): below the threshold
pKd (DLG3_1, Q92796): 4.38
pKd (NHERF4_4, Q86UT5): below the threshold
pKd (Inadl_1, Q8NI35): below the threshold
pKd (NHERF2_2, Q15599): below the threshold

DSATVRTYSC [PPFIA1, Q13136]
pKd (NHERF3_4, Q5T2W1): below the threshold
pKd (HTRA2, O43464): 3.66
pKd (PDZRN3_1, Q9UPQ7): below the threshold
pKd (TIAM2, Q8IVF5): 4.19
pKd (APBA2_1, Q99767): below the threshold
pKd (MAST2, Q6P0Q8): 3.98
pKd (DFNB31_3, Q9P202): 3.51
pKd (MAGI1_1, Q96QZ7): below the threshold
pKd (DLG1_3, Q12959): below the threshold
pKd (NHERF4_2, Q86UT5): below the threshold
pKd (DLG1_2, Q12959): below the threshold
pKd (ARHGEF11, O15085): 3.66
pKd (PTPN13_1, Q12923): below the threshold
pKd (LIN7C, Q9NUP9): below the threshold
pKd (AHNAK1, Q09666): below the threshold
pKd (MAGI2_6, Q86UL8): below the threshold
pKd (TJP1_3, Q07157): below the threshold
pKd (Inadl_9, Q8NI35): below the threshold
pKd (LNX1_3, Q8TBB1): below the threshold
pKd (DFNB31_1, Q9P202): 3.47
pKd (LRRC7, Q96NW7): below the threshold
pKd (MPDZ_12, O75970): below the threshold
pKd (DLG3_1, Q92796): below the threshold
pKd (NHERF4_4, Q86UT5): below the threshold
pKd (Inadl_1, Q8NI35): below the threshold
pKd (NHERF2_2, Q15599): below the threshold

PASAKGPLGV [CLDN19, Q8N6F1]
pKd (NHERF3_4, Q5T2W1): below the threshold
pKd (HTRA2, O43464): below the threshold
pKd (PDZRN3_1, Q9UPQ7): below the threshold
pKd (TIAM2, Q8IVF5): below the threshold
pKd (APBA2_1, Q99767): below the threshold
pKd (MAST2, Q6P0Q8): below the threshold
pKd (DFNB31_3, Q9P202): below the threshold
pKd (MAGI1_1, Q96QZ7): below the threshold
pKd (DLG1_3, Q12959): below the threshold
pKd (NHERF4_2, Q86UT5): below the threshold
pKd (DLG1_2, Q12959): below the threshold
pKd (ARHGEF11, O15085): below the threshold
pKd (PTPN13_1, Q12923): below the threshold
pKd (LIN7C, Q9NUP9): below the threshold
pKd (AHNAK1, Q09666): below the threshold
pKd (MAGI2_6, Q86UL8): below the threshold
pKd (TJP1_3, Q07157): below the threshold
pKd (Inadl_9, Q8NI35): below the threshold
pKd (LNX1_3, Q8TBB1): below the threshold
pKd (DFNB31_1, Q9P202): below the threshold
pKd (LRRC7, Q96NW7): below the threshold
pKd (MPDZ_12, O75970): below the threshold
pKd (DLG3_1, Q92796): below the threshold
pKd (NHERF4_4, Q86UT5): below the threshold
pKd (Inadl_1, Q8NI35): below the threshold
pKd (NHERF2_2, Q15599): below the threshold

DQPLEKSTKL [AKAP10, O43572]
pKd (NHERF3_4, Q5T2W1): 5.69
pKd (HTRA2, O43464): below the threshold
pKd (PDZRN3_1, Q9UPQ7): 3.79
pKd (TIAM2, Q8IVF5): 4.04
pKd (APBA2_1, Q99767): below the threshold
pKd (MAST2, Q6P0Q8): 5.41
pKd (DFNB31_3, Q9P202): 3.68
pKd (MAGI1_1, Q96QZ7): below the threshold
pKd (DLG1_3, Q12959): below the threshold
pKd (NHERF4_2, Q86UT5): below the threshold
pKd (DLG1_2, Q12959): below the threshold
pKd (ARHGEF11, O15085): 4.2
pKd (PTPN13_1, Q12923): below the threshold
pKd (LIN7C, Q9NUP9): below the threshold
pKd (AHNAK1, Q09666): below the threshold
pKd (MAGI2_6, Q86UL8): below the threshold
pKd (TJP1_3, Q07157): below the threshold
pKd (Inadl_9, Q8NI35): below the threshold
pKd (LNX1_3, Q8TBB1): below the threshold
pKd (DFNB31_1, Q9P202): 3.73
pKd (LRRC7, Q96NW7): below the threshold
pKd (MPDZ_12, O75970): 3.73
pKd (DLG3_1, Q92796): below the threshold
pKd (NHERF4_4, Q86UT5): below the threshold
pKd (Inadl_1, Q8NI35): below the threshold
pKd (NHERF2_2, Q15599): 5.02
